Measured values published in US20240279356A1 (Xencor, published 2024).

How the values were obtained:
[1] = biological target: T1, cyno MSLN (Macaca fascicularis (cynomolgus)); assay: Octet BLI; bsAb on anti-human Fc sensor, cyno MSLN as analyte, one concentration
T1 construct: soluble antigen for Octet; also called cynomolgus MSLN

[2] = biological target: T2, human MSLN antigen (human, UniProt Q13421 296-580, limits assumed); assay: Octet BLI; bsAb on anti-human Fc sensor, human MSLN as analyte, one concentration
T2 construct: Soluble antigen for BLI; also called Mesothelin; MESO
Text: Variants of MESO-C were engineered by introducing point substitutions into the variable heavy region (VH) and the variable light region (VL) to generate 11 VH variants and 16 VL variants (sequences for which are depicted in FIG. 18 as H1.1-H1.13 and in FIG. 19 as L1.1-L1.18). An additional 4 VL variants were generated by combining useful point substitutions (sequences for which are depicted in FIG. 19 as L1.19-L1.22). WT and variant variable heavy regions were paired with WT and variant variable light regions to generate variant variable regions (Fvs) which were produced in the context of anti-MSLN×anti-CD3 bispecific antibodies. The bispecific antibodies were screened for MSLN binding affinity using Octet®, a BioLayer Interferometry (BLI)-based method. Experimental steps for Octet® generally include the following: Immobilization (capture of ligand to a biosensor); Association (dipping of ligand-coated biosensors into wells containing the analyte); and Dissociation (returning of biosensors to well containing buffer). In an initial screening, anti-human Fc sensors were used to capture the bispecific mAbs and dipped into human MSLN antigen (one concentration to screen large library). The resulting dissociation constant of illustrative variants (KD), association rate (kₐ), dissociation rate (kd), as well as sensorgram response are depicted in FIG. 20. In further screening of favorite variants identified in the initial screen (and combination variants), bispecific mAbs were dipped into multiple concentrations of human MSLN antigen, data for which are depicted in FIG. 21 (from various screens).

T2 sequence (Q13421 other isoform, or with tags, fused parts or gaps limits assumed): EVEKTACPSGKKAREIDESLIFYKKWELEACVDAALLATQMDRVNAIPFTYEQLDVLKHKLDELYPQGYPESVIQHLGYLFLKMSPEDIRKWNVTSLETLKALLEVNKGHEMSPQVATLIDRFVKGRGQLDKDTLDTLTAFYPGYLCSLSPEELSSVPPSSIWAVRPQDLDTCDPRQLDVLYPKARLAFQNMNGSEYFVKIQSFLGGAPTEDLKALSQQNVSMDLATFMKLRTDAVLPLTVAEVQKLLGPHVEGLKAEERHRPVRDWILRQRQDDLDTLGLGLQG

Row | Kd [1] [nM] | Response [1] | koff [1] [s⁻¹] | kon [1] [M⁻¹ s⁻¹] | Kd [2] [nM] | Response [2] | koff [2] [s⁻¹] | kon [2] [M⁻¹ s⁻¹] | Binder
1 | 0.603 | 1.11 | 0.000342 | 566000 | 0.684 | 1.23 | 0.000375 | 549000 | XENP32555 (bispecific antibody, 1+1 Fab-scFv-Fc bsAb; VH D55G, VL WT (Kabat); also called MESO-C H1.6_L1) Fab-Fc heavy chain (anti-MSLN VH): QVQLVQSGAEVKKPGASVKVSCKASGYTFTSYWMHWVRQAPGQGLEWMGMIHPNSGNTIYYEKFQGRVTMTVDKSISTAYMELSRLRSDDTAVYYCAIIITPVVPKFDYWGQGTLVTVSSASTKGPSVFPLAPSSKSTSGGTAALGCLVKDYFPEPVTVSWNSGALTSGVHTFPAVLQSSGLYSLSSVVTVPSSSLGTQTYICNVNHKPSDTKVDKKVEPKSCDKTHTCPPCPAPPVAGPSVFLFPPKPKDTLMISRTPEVTCVVVDVKHEDPEVKFNWYVDGVEVHNAKTKPREEEYNSTYRVVSVLTVLHQDWLNGKEYKCKVSNKALPAPIEKTISKAKGQPREPQVYTLPPSREEMTKNQVSLTCDVSGFYPSDIAVEWESDGQPENNYKTTPPVLDSDGSFFLYSKLTVDKSRWEQGDVFSCSVMHEALHNHYTQKSLSLSPGK scFv-Fc heavy chain (anti-CD3 H1.30_L1.47): not shown light chain (anti-MSLN VL): DIVMTQSPDSLAVSLGERATINCKASHDVGTSVAWYQQKPGQSPKLLIYWASTRHTGVPDRFTGSGSGTDFTLTISSLQAEDVAVYFCQQYSSYPLTFGAGTKLEIKRTVAAPSVFIFPPSDEQLKSGTASVVCLLNNFYPREAKVQWKVDNALQSGNSQESVTEQDSKDSTYSLSSTLTLSKADYEKHKVYACEVTHQGLSSPVTKSFNRGEC
2 | 0.395 | 1.07 | 0.000157 | 399000 | 0.469 | 1.18 | 0.000199 | 425000 | XENP32556 (bispecific antibody, 1+1 Fab-scFv-Fc bsAb; VH I94R, VL WT (Kabat); also called MESO-C H1.7_L1) Fab-Fc heavy chain (anti-MSLN VH): QVQLVQSGAEVKKPGASVKVSCKASGYTFTSYWMHWVRQAPGQGLEWMGMIHPNSDNTIYYEKFQGRVTMTVDKSISTAYMELSRLRSDDTAVYYCARIITPVVPKFDYWGQGTLVTVSSASTKGPSVFPLAPSSKSTSGGTAALGCLVKDYFPEPVTVSWNSGALTSGVHTFPAVLQSSGLYSLSSVVTVPSSSLGTQTYICNVNHKPSDTKVDKKVEPKSCDKTHTCPPCPAPPVAGPSVFLFPPKPKDTLMISRTPEVTCVVVDVKHEDPEVKFNWYVDGVEVHNAKTKPREEEYNSTYRVVSVLTVLHQDWLNGKEYKCKVSNKALPAPIEKTISKAKGQPREPQVYTLPPSREEMTKNQVSLTCDVSGFYPSDIAVEWESDGQPENNYKTTPPVLDSDGSFFLYSKLTVDKSRWEQGDVFSCSVMHEALHNHYTQKSLSLSPGK scFv-Fc heavy chain (anti-CD3 H1.30_L1.47): not shown light chain (anti-MSLN VL): DIVMTQSPDSLAVSLGERATINCKASHDVGTSVAWYQQKPGQSPKLLIYWASTRHTGVPDRFTGSGSGTDFTLTISSLQAEDVAVYFCQQYSSYPLTFGAGTKLEIKRTVAAPSVFIFPPSDEQLKSGTASVVCLLNNFYPREAKVQWKVDNALQSGNSQESVTEQDSKDSTYSLSSTLTLSKADYEKHKVYACEVTHQGLSSPVTKSFNRGEC
3 | 0.585 | 1.06 | 0.000337 | 575000 | 0.687 | 1.16 | 0.00037 | 539000 | XENP32553 (bispecific antibody, 1+1 Fab-scFv-Fc bsAb; VH H52N, VL WT (Kabat); also called MESO-C H1.4_L1) Fab-Fc heavy chain (anti-MSLN VH): QVQLVQSGAEVKKPGASVKVSCKASGYTFTSYWMHWVRQAPGQGLEWMGMINPNSDNTIYYEKFQGRVTMTVDKSISTAYMELSRLRSDDTAVYYCAIIITPVVPKFDYWGQGTLVTVSSASTKGPSVFPLAPSSKSTSGGTAALGCLVKDYFPEPVTVSWNSGALTSGVHTFPAVLQSSGLYSLSSVVTVPSSSLGTQTYICNVNHKPSDTKVDKKVEPKSCDKTHTCPPCPAPPVAGPSVFLFPPKPKDTLMISRTPEVTCVVVDVKHEDPEVKFNWYVDGVEVHNAKTKPREEEYNSTYRVVSVLTVLHQDWLNGKEYKCKVSNKALPAPIEKTISKAKGQPREPQVYTLPPSREEMTKNQVSLTCDVSGFYPSDIAVEWESDGQPENNYKTTPPVLDSDGSFFLYSKLTVDKSRWEQGDVFSCSVMHEALHNHYTQKSLSLSPGK scFv-Fc heavy chain (anti-CD3 H1.30_L1.47): not shown light chain (anti-MSLN VL): DIVMTQSPDSLAVSLGERATINCKASHDVGTSVAWYQQKPGQSPKLLIYWASTRHTGVPDRFTGSGSGTDFTLTISSLQAEDVAVYFCQQYSSYPLTFGAGTKLEIKRTVAAPSVFIFPPSDEQLKSGTASVVCLLNNFYPREAKVQWKVDNALQSGNSQESVTEQDSKDSTYSLSSTLTLSKADYEKHKVYACEVTHQGLSSPVTKSFNRGEC
4 | 0.414 | 1.03 | 0.00023 | 555000 | 0.483 | 1.13 | 0.000268 | 555000 | XENP32554 (bispecific antibody, 1+1 Fab-scFv-Fc bsAb; VH N53Q, VL WT (Kabat); also called MESO-C H1.5_L1) Fab-Fc heavy chain (anti-MSLN VH): QVQLVQSGAEVKKPGASVKVSCKASGYTFTSYWMHWVRQAPGQGLEWMGMIHPQSDNTIYYEKFQGRVTMTVDKSISTAYMELSRLRSDDTAVYYCAIIITPVVPKFDYWGQGTLVTVSSASTKGPSVFPLAPSSKSTSGGTAALGCLVKDYFPEPVTVSWNSGALTSGVHTFPAVLQSSGLYSLSSVVTVPSSSLGTQTYICNVNHKPSDTKVDKKVEPKSCDKTHTCPPCPAPPVAGPSVFLFPPKPKDTLMISRTPEVTCVVVDVKHEDPEVKFNWYVDGVEVHNAKTKPREEEYNSTYRVVSVLTVLHQDWLNGKEYKCKVSNKALPAPIEKTISKAKGQPREPQVYTLPPSREEMTKNQVSLTCDVSGFYPSDIAVEWESDGQPENNYKTTPPVLDSDGSFFLYSKLTVDKSRWEQGDVFSCSVMHEALHNHYTQKSLSLSPGK scFv-Fc heavy chain (anti-CD3 H1.30_L1.47): not shown light chain (anti-MSLN VL): DIVMTQSPDSLAVSLGERATINCKASHDVGTSVAWYQQKPGQSPKLLIYWASTRHTGVPDRFTGSGSGTDFTLTISSLQAEDVAVYFCQQYSSYPLTFGAGTKLEIKRTVAAPSVFIFPPSDEQLKSGTASVVCLLNNFYPREAKVQWKVDNALQSGNSQESVTEQDSKDSTYSLSSTLTLSKADYEKHKVYACEVTHQGLSSPVTKSFNRGEC

The remaining lines, values behind:

Row | Binder | Kd [1] [nM] | Response [1] | koff [1] [s⁻¹] | kon [1] [M⁻¹ s⁻¹] | Kd [2] [nM] | Response [2] | koff [2] [s⁻¹] | kon [2] [M⁻¹ s⁻¹]
5 | XENP31701 (bispecific antibody, VH WT, VL WT; also called MESO-C H1_L1; copies: 1 + 1 + 1) heavy: QVQLVQSGAEVKKPGASVKVSCKASGYTFTSYWMHWVRQAPGQGLEWMGMIHPNSDNTIYYEKFQGRVTMTVDKSISTAYMELSRLRSDDTAVYYCAIIITPVVPKFDYWGQGTLVTVSSASTKGPSVFPLAPSSKSTSGGTAALGCLVKDYFPEPVTVSWNSGALTSGVHTFPAVLQSSGLYSLSSVVTVPSSSLGTQTYICNVNHKPSDTKVDKKVEPKSCDKTHTCPPCPAPPVAGPSVFLFPPKPKDTLMISRTPEVTCVVVDVKHEDPEVKFNWYVDGVEVHNAKTKPREEEYNSTYRVVSVLTVLHQDWLNGKEYKCKVSNKALPAPIEKTISKAKGQPREPQVYTLPPSREEMTKNQVSLTCDVSGFYPSDIAVEWESDGQPENNYKTTPPVLDSDGSFFLYSKLTVDKSRWEQGDVFSCSVMHEALHNHYTQKSLSLSPGK scFv-Fc: not shown light: DIVMTQSPDSLAVSLGERATINCKASHDVGTSVAWYQQKPGQSPKLLIYWASTRHTGVPDRFTGSGSGTDFTLTISSLQAEDVAVYFCQQYSSYPLTFGAGTKLEIKRTVAAPSVFIFPPSDEQLKSGTASVVCLLNNFYPREAKVQWKVDNALQSGNSQESVTEQDSKDSTYSLSSTLTLSKADYEKHKVYACEVTHQGLSSPVTKSFNRGEC | 0.0938 | 0.737 | 5.74e-05 | 612000 | 0.0805 | 0.86 | 4.69e-05 | 583000
6 | XENP32551 (bispecific antibody, 1+1 Fab-scFv-Fc bsAb; VH W32Y, VL WT (Kabat); also called MESO-C H1.2_L1) Fab-Fc heavy chain (anti-MSLN VH): QVQLVQSGAEVKKPGASVKVSCKASGYTFTSYYMHWVRQAPGQGLEWMGMIHPNSDNTIYYEKFQGRVTMTVDKSISTAYMELSRLRSDDTAVYYCAIIITPVVPKFDYWGQGTLVTVSSASTKGPSVFPLAPSSKSTSGGTAALGCLVKDYFPEPVTVSWNSGALTSGVHTFPAVLQSSGLYSLSSVVTVPSSSLGTQTYICNVNHKPSDTKVDKKVEPKSCDKTHTCPPCPAPPVAGPSVFLFPPKPKDTLMISRTPEVTCVVVDVKHEDPEVKFNWYVDGVEVHNAKTKPREEEYNSTYRVVSVLTVLHQDWLNGKEYKCKVSNKALPAPIEKTISKAKGQPREPQVYTLPPSREEMTKNQVSLTCDVSGFYPSDIAVEWESDGQPENNYKTTPPVLDSDGSFFLYSKLTVDKSRWEQGDVFSCSVMHEALHNHYTQKSLSLSPGK scFv-Fc heavy chain (anti-CD3 H1.30_L1.47): not shown light chain (anti-MSLN VL): DIVMTQSPDSLAVSLGERATINCKASHDVGTSVAWYQQKPGQSPKLLIYWASTRHTGVPDRFTGSGSGTDFTLTISSLQAEDVAVYFCQQYSSYPLTFGAGTKLEIKRTVAAPSVFIFPPSDEQLKSGTASVVCLLNNFYPREAKVQWKVDNALQSGNSQESVTEQDSKDSTYSLSSTLTLSKADYEKHKVYACEVTHQGLSSPVTKSFNRGEC | 1.66 | 1.1 | 0.000822 | 495000 | 1.6 | 1.19 | 0.000773 | 483000
7 | XENP32550 (bispecific antibody, 1+1 Fab-scFv-Fc bsAb; VH S31G, VL WT (Kabat); also called MESO-C H1.1_L1) Fab-Fc heavy chain (anti-MSLN VH): QVQLVQSGAEVKKPGASVKVSCKASGYTFTGYWMHWVRQAPGQGLEWMGMIHPNSDNTIYYEKFQGRVTMTVDKSISTAYMELSRLRSDDTAVYYCAIIITPVVPKFDYWGQGTLVTVSSASTKGPSVFPLAPSSKSTSGGTAALGCLVKDYFPEPVTVSWNSGALTSGVHTFPAVLQSSGLYSLSSVVTVPSSSLGTQTYICNVNHKPSDTKVDKKVEPKSCDKTHTCPPCPAPPVAGPSVFLFPPKPKDTLMISRTPEVTCVVVDVKHEDPEVKFNWYVDGVEVHNAKTKPREEEYNSTYRVVSVLTVLHQDWLNGKEYKCKVSNKALPAPIEKTISKAKGQPREPQVYTLPPSREEMTKNQVSLTCDVSGFYPSDIAVEWESDGQPENNYKTTPPVLDSDGSFFLYSKLTVDKSRWEQGDVFSCSVMHEALHNHYTQKSLSLSPGK scFv-Fc heavy chain (anti-CD3 H1.30_L1.47): not shown light chain (anti-MSLN VL): DIVMTQSPDSLAVSLGERATINCKASHDVGTSVAWYQQKPGQSPKLLIYWASTRHTGVPDRFTGSGSGTDFTLTISSLQAEDVAVYFCQQYSSYPLTFGAGTKLEIKRTVAAPSVFIFPPSDEQLKSGTASVVCLLNNFYPREAKVQWKVDNALQSGNSQESVTEQDSKDSTYSLSSTLTLSKADYEKHKVYACEVTHQGLSSPVTKSFNRGEC | 0.254 | 0.891 | 0.000146 | 576000 | 0.601 | 1.02 | 0.000314 | 522000
